Assay [1] has as its target T1, mouse SIRPA overexpressed on CHO cells (mouse, UniProt P97797 32-513).
T1 construct: also called CHO-muSIRPA
T1 sequence: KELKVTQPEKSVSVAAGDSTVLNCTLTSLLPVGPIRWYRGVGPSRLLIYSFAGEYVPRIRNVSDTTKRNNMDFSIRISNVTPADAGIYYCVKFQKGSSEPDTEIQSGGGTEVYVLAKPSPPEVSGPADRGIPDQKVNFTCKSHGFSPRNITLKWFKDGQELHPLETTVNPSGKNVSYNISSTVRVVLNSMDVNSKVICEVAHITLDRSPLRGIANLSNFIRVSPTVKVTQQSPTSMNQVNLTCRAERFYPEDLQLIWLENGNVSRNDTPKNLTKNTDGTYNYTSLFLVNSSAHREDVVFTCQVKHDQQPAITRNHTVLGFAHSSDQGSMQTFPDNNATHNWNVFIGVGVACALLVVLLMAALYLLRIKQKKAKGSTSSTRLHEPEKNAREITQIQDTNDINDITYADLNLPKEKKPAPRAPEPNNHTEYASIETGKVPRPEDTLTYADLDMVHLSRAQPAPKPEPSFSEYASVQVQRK
Description: flow, CHO-muSIRPA.

The target of a further assay is T2, Human SIRPA D1 Fc (human, UniProt P78324 32-137).
T2 construct: not shown: human IgG1 Fc
Description: ForteBio IgG avid. (Biolayer interferometry detects binding as a change in optical thickness at a sensor tip.)

Another assay addresses T3, Mouse SIRPA D1 Fc (mouse, UniProt P97797 32-150, limits assumed).
T3 sequence: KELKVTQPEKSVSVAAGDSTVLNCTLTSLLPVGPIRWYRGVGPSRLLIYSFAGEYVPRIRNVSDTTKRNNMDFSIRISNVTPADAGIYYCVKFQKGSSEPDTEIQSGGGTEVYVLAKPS
Description: ForteBio IgG avid.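 Further: antibody IgG captured on AHQ biosensors, then 100 nM Fc-fused SIRP antigen applied for 3 min, followed by 3 min buffer dissociation, kinetics fitted to a 1:1 model.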

The next assay deals with Human SIRPb D1 Fc (human, UniProt O00241 30-148, limits assumed). Description: ForteBio IgG avid.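 Further: antibody IgG captured on AHQ biosensors, then 100 nM Fc-fused SIRP antigen applied for 3 min, followed by 3 min buffer dissociation, kinetics fitted to a 1:1 model.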
Human SIRPb D1 Fc, sequence (O00241 30-148 limits assumed): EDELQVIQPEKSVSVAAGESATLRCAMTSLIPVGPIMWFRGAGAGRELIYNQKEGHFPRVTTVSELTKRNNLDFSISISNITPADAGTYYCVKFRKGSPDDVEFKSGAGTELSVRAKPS
In assay [2] the target is T4, human SIRPA overexpressed on CHO cells (human, UniProt P78324 31-504).
T4 construct: also called CHO-huSIRPA
Description: flow, CHO-huSIRPA.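 Further: Anti-SIRPA antibodies applied at 1 µg/mL for 1 h on ice, binding read by flow cytometry using a PE-labelled secondary antibody.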

Assay [3] has as its target T1, mouse SIRPA overexpressed on CHO cells. Description: flow, CHO-muSIRPA. This is another data set of the same source.

B1: SA-22 (antibody, V domains shown)
VH: EVQLVESGGGLVKPGGSLRLSCAASGFTFSSYSMNWVRQAPGKGLEWVSSISSSSSYIYYADSVKGRFTISRDNAKNSLYLQMNSLRAEDTAVYYCARDPTDSSSYYDVWGQGTLVTVSS
VL: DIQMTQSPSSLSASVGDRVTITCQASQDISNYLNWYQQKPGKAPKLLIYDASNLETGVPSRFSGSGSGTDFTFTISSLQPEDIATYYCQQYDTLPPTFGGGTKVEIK
notes: IgG
On to B1, for which the binding result in assay [1] is reported as “no binding (tested: 1 ug/ml)”; in the assay with Mouse SIRPA D1 Fc it was “no binding (tested: 100 nM)”; with Human SIRPb D1 Fc, “no binding (tested: 100 nM)”. Also, in the assay with Human SIRPA D1 Fc, binding was put at a Kd of 22 nM. Besides, the “relative MFI” value in assay [2] was 1.39 fold over background; in assay [3], 0.619 fold over background.

B2: SA-16 (antibody, V domains shown)
VH: QVQLQQWGAGLLKPSETLSLTCAVYGGSFSGYYWSWIRQPPGKGLEWIGEIDHSGSTNYNPSLKSRVTISVDTSKNQFSLKLSSVTAADTAVYYCARDLGPPGPHLDVWGQGTMVTVSS
VL: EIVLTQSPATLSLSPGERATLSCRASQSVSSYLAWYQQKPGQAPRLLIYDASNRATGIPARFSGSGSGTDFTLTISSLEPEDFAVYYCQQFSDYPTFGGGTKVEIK
notes: IgG
As to B2, the binding result in assay [1] is recorded as “no binding (tested: 1 ug/ml)”; in the assay with Mouse SIRPA D1 Fc, “no binding (tested: 100 nM)”; with Human SIRPb D1 Fc it was “no binding (tested: 100 nM)”. The molecule further returned a Kd with Human SIRPA D1 Fc of 4.02 nM. Also, the “relative MFI” value is 0.592 fold over background in assay [2] and 0.539 fold over background in assay [3].

B3: SA-19 (antibody, V domains shown)
VH: QVQLVESGGGVVQPGRSLRLSCAASGFTFSSYGMHWVRQAPGKGLEWVAVISYDGSNKYYADSVKGRFTISRDNSKNTLYLQMNSLRAEDTAVYYCARDLTKYTLGFAFDIWGQGTMVTVSS
VL: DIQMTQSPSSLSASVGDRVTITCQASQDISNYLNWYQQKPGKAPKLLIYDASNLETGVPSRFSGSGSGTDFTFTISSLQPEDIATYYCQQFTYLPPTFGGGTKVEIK
notes: IgG; also called SA-19 (parental)
For the molecule B3, the figures for the binding result (in assay [1]; with Human SIRPA D1 Fc; in the assay with Mouse SIRPA D1 Fc) were “no binding (tested: 1 ug/ml)”, “binds” and “no binding (tested: 100 nM)”, respectively. In assay [3], the “relative MFI” value came to 0.601 fold over background.

B4: SA-12 (antibody, V domains shown)
VH: QVQLVQSGAEVKKPGASVKVSCKASGYTFTSYYIHWVRQAPGQGLEWMGIINPSGGSTSYAQKFQGRVTMTRDTSTSTVYMELSSLRSEDTAVYYCARAPGSWFYWGQGTLVTVSS
VL: EIVLTQSPATLSLSPGERATLSCRASQSVSSYLAWYQQKPGQAPRLLIYDASNRATGIPARFSGSGSGTDFTLTISSLEPEDFAVYYCQQRTNFPITFGGGTKVEIK
notes: IgG
B4: the binding result is “no binding (tested: 1 ug/ml)” in assay [1], “no binding (tested: 100 nM)” in the assay with Mouse SIRPA D1 Fc and “no binding (tested: 100 nM)” with Human SIRPb D1 Fc. Moreover, in the assay with Human SIRPA D1 Fc, the Kd was determined as 13 nM. Further, the “relative MFI” value in assay [2] was 52 fold over background; in assay [3], 0.548 fold over background.

B5: SA-14 (antibody, V domains shown)
VH: EVQLVESGGGLVKPGGSLRLSCAASGFTFSSYSMNWVRQAPGKGLEWVSSISSSSSYIYYADSVKGRFTISRDNAKNSLYLQMNSLRAEDTAVYYCARDGSMYYGDPMDVWGQGTTVTVSS
VL: DIQLTQSPSSLSASVGDRVTITCQASQDISNFLNWYQQKPGKAPKLLIYDASNLETGVPSRFSGSGSGTDFTFTISSLQPEDIAKYYCQQFINFPLTFGGGTKVEIK
notes: IgG
For B5, the binding result in assay [1] was “no binding (tested: 1 ug/ml)”; with Mouse SIRPA D1 Fc, “no binding (tested: 100 nM)”; with Human SIRPb D1 Fc it was “no binding (tested: 100 nM)”. The molecule further returned an equilibrium dissociation constant (Kd) with Human SIRPA D1 Fc of 31 nM. The “relative MFI” value in assay [2] turned out to be 24.4 fold over background; in assay [3], 0.732 fold over background.

B6: SA-25 (antibody, V domains shown)
VH: QVQLVQSGAEVKKPGSSVKVSCKASGGTFSSYAISWVRQAPGQGLEWMGSIIPIFGTANYAQKFQGRVTITADESTSTAYMELSSLRSEDTAVYYCARDRGYPRYSYLDLWGRGTLVTVSS
VL: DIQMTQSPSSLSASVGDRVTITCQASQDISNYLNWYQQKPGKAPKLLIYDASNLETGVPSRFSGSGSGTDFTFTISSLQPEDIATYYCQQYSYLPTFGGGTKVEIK
notes: IgG
As for B6, the results for the binding result (in assay [1]; in the assay with Mouse SIRPA D1 Fc; with Human SIRPb D1 Fc) were “no binding (tested: 1 ug/ml)”, “no binding (tested: 100 nM)” and “no binding (tested: 100 nM)”, respectively. Further, binding in the assay with Human SIRPA D1 Fc was put at a Kd of 24.2 nM. Further, the figures for the “relative MFI” value in assay [2] and in assay [3] were 8.27 fold over background and 0.586 fold over background, respectively.

B7: SA-23 (antibody, V domains shown)
VH: QVQLVQSGAEVKKPGASVKVSCKASGYTFTSYGISWVRQAPGQGLEWMGWISTYNGNTNYAQKLQGRVTMTTDTSTSTAYMELRSLRSDDTAVYYCARDQGTGTTVDLDLWGRGTLVTVSS
VL: not shown
notes: IgG
In the assay with Human SIRPA D1 Fc, B7 showed a Kd of 38 nM. The “relative MFI” value in assay [2] is 21.1 fold over background; in assay [3] it was 0.533 fold over background.

A word on the Kd: it is the equilibrium constant for the complex coming apart. A lower Kd goes with tighter binding.

Values taken from patent US20240270866A1 (Alector, published 2024).
